Values belong to the binder of their own block, whether it stands above or below them.
How the values were obtained:
Conditions in all cases: remark: other sources report otherwise
[1] = biological target: T1, recombinant UVR8 (wild-type) purified from Sf9 insect cells (Arabidopsis thaliana), Q9FN03; assay: SEC
T1 chain: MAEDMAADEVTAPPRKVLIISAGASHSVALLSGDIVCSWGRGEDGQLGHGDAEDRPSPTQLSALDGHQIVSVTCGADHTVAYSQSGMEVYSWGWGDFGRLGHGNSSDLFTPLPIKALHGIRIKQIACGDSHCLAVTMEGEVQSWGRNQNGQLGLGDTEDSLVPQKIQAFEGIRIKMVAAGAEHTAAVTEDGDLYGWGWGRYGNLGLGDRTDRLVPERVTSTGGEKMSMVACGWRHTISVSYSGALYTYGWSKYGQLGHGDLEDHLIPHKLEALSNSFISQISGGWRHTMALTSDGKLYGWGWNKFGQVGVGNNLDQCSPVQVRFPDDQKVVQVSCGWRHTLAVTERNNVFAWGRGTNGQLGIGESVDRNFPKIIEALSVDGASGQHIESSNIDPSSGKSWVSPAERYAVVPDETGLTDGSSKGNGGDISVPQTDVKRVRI

[2] = biological target: T2, recombinant UVR8^W285A purified from Sf9 insect cells (Arabidopsis thaliana), Q9FN03; assay: SEC
T2 chain: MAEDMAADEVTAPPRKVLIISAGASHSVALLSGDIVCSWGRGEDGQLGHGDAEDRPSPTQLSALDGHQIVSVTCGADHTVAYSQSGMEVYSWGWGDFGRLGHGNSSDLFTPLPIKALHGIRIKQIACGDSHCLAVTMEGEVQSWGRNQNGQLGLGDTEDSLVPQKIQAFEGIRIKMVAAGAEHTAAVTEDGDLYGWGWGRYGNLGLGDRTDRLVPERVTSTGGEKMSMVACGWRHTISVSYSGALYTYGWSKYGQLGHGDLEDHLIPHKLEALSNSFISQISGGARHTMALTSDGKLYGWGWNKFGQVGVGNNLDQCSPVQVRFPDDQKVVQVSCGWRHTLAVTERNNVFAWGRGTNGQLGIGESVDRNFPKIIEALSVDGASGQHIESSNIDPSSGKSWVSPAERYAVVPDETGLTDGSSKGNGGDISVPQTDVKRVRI

[3] = biological target: T3, UVR8^W285A expressed in Arabidopsis (Arabidopsis thaliana), Q9FN03; assay: cross-linking
T3 chain: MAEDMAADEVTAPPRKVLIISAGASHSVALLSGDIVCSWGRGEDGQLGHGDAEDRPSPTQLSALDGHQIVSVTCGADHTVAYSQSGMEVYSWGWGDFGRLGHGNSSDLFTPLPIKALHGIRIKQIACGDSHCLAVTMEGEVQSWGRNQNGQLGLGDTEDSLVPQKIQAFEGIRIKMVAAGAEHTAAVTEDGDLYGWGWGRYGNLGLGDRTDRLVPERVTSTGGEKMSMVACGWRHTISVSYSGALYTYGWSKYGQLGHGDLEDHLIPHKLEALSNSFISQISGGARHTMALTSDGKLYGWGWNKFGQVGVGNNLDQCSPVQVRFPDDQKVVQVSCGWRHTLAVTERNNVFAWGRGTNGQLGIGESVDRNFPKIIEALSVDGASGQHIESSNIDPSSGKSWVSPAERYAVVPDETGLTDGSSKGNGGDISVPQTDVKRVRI

- stoichiometry N [1]: 2
B1: recombinant UVR8 (wild-type) purified from Sf9 insect cells, Q9FN03 1-440 (natural protein)
chain: MAEDMAADEVTAPPRKVLIISAGASHSVALLSGDIVCSWGRGEDGQLGHGDAEDRPSPTQLSALDGHQIVSVTCGADHTVAYSQSGMEVYSWGWGDFGRLGHGNSSDLFTPLPIKALHGIRIKQIACGDSHCLAVTMEGEVQSWGRNQNGQLGLGDTEDSLVPQKIQAFEGIRIKMVAAGAEHTAAVTEDGDLYGWGWGRYGNLGLGDRTDRLVPERVTSTGGEKMSMVACGWRHTISVSYSGALYTYGWSKYGQLGHGDLEDHLIPHKLEALSNSFISQISGGWRHTMALTSDGKLYGWGWNKFGQVGVGNNLDQCSPVQVRFPDDQKVVQVSCGWRHTLAVTERNNVFAWGRGTNGQLGIGESVDRNFPKIIEALSVDGASGQHIESSNIDPSSGKSWVSPAERYAVVPDETGLTDGSSKGNGGDISVPQTDVKRVRI

- stoichiometry N [2]: 2
B2: recombinant UVR8^W285A purified from Sf9 insect cells, Q9FN03 1-440 (natural protein)
chain: MAEDMAADEVTAPPRKVLIISAGASHSVALLSGDIVCSWGRGEDGQLGHGDAEDRPSPTQLSALDGHQIVSVTCGADHTVAYSQSGMEVYSWGWGDFGRLGHGNSSDLFTPLPIKALHGIRIKQIACGDSHCLAVTMEGEVQSWGRNQNGQLGLGDTEDSLVPQKIQAFEGIRIKMVAAGAEHTAAVTEDGDLYGWGWGRYGNLGLGDRTDRLVPERVTSTGGEKMSMVACGWRHTISVSYSGALYTYGWSKYGQLGHGDLEDHLIPHKLEALSNSFISQISGGARHTMALTSDGKLYGWGWNKFGQVGVGNNLDQCSPVQVRFPDDQKVVQVSCGWRHTLAVTERNNVFAWGRGTNGQLGIGESVDRNFPKIIEALSVDGASGQHIESSNIDPSSGKSWVSPAERYAVVPDETGLTDGSSKGNGGDISVPQTDVKRVRI

- stoichiometry N [3]: 2
B3: UVR8^W285A expressed in Arabidopsis, Q9FN03 1-440 (natural protein)
chain: MAEDMAADEVTAPPRKVLIISAGASHSVALLSGDIVCSWGRGEDGQLGHGDAEDRPSPTQLSALDGHQIVSVTCGADHTVAYSQSGMEVYSWGWGDFGRLGHGNSSDLFTPLPIKALHGIRIKQIACGDSHCLAVTMEGEVQSWGRNQNGQLGLGDTEDSLVPQKIQAFEGIRIKMVAAGAEHTAAVTEDGDLYGWGWGRYGNLGLGDRTDRLVPERVTSTGGEKMSMVACGWRHTISVSYSGALYTYGWSKYGQLGHGDLEDHLIPHKLEALSNSFISQISGGARHTMALTSDGKLYGWGWNKFGQVGVGNNLDQCSPVQVRFPDDQKVVQVSCGWRHTLAVTERNNVFAWGRGTNGQLGIGESVDRNFPKIIEALSVDGASGQHIESSNIDPSSGKSWVSPAERYAVVPDETGLTDGSSKGNGGDISVPQTDVKRVRI
